From the nanobody polyreactivity screen of Harvey et al. (2022)

Assay: yeast display, Sf9 membrane polyspecificity reagent, FACS + sequencing; frameworks hold sequencing errors
In short: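 In a synthetic yeast display library (Saccharomyces cerevisiae BJ5465), nanobody expression was induced with galactose for 36–48 hours. FACS gates were set low and high (top ~1%) using anti-HA fluorescence for expression and streptavidin fluorescence for binding of the Sf9 membrane reagent. Each polyreactivity label is drawn from the gate of origin.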

Sequence | polyreactivity (PSR sort gate)
QVQLVESGGGLVQAGGSLRLSCAASGFIFRHYTMGWYRQAPGKERELVAAISSGGSTYYADSVKGRFTISRDNEKNTVYLQMNSLKPEDTAVYYCAARSRIYGLLFYYWGLGTQVTVSS | high polyreactivity
PVQVVESGGVLVQAGGSRRLSCAAAGGNFYGNVMGWYRQAPGKERELVADITSVSSTYYADSVKGRFTISRDNAKNTVFLQMKRLKPEDTAVYYCAPEPDHVADSHSGYDYWGQGTQVTVSS | low polyreactivity
QVQIVESGGGLVQAGGSLRLSCDASGSTFVRYAMGWYRQAHGKERELVAAISYRGGSTYYADSVKGRFTISRDNAKNTVYLQMNSLKPEDTAVYYCAAESRHVEGEYWGQGTQVTVSS | high polyreactivity
QVQLVESGGGLFQAGGSLRLICAASGSTFRFYAMGWYRQAPAKERELVAVIRSTGSTYYADSVKGRFTISRDNAKNTVYLQMYSLNPDDTAVYYCAAQNAWWSNGRSYDYWGQGTQVTVSS | low polyreactivity
QVQLVDSGGGLVQPGGSLRLRCAASGGIFLQNAMGWYRQAPGTERELVAAISWSAGSTYYADSVKGRFTISRDNAKNTVYLDMNCLKPEDTAVYYCAAAGSNFTVWYGYYYWGQGTQVTVSS | low polyreactivity
LVQHVESGGGIVQAGGSLRLTCAASGSIFASYAMGWYRLAPGKEREFVAAISRRSGSTYYSDSVKGRFTISRDYAKNTVYLQLKSLKPEDTAVYDCAGALYYGYDHYNYWGQGTQVTVSS | high polyreactivity
QVQLVESGGGLVQAGGSLRLSCAASGSTLSYNAMGWYRPATGKERELVAAISWSDGGTYYADSVKGRFTISRDNAKNTVYLQMNSLKPEDTAVYYCNAESQWSYYFIYDYWGQGTQVTVSS | high polyreactivity
QVQLVESGGGLVQAGGSLRLSCAASGNIFPSYAMGWYRQAPGKERELVASINFSDGYTSYADSVKGRFTISRDNAKNTVYLQMNSLKPEDTAVYNCNADVWYYYYGFKGEEDYWGQGTQVTVSS | low polyreactivity
QVQLVESGGGLVQAGGSHRLSCAASGYTFARNAMGCDRQAPGKDRELVAAINWSGTNTYYADSVKGRFTISRDSAMNTVYLQMNSLKPEDTAVYYCAKDLYFSGYEFDYWGQGTQVTVSS | low polyreactivity
QVQLVESGGGLVQAGGSLRLSCAASGSTIRYYAMGWYRQAPGKERELVAAITKSGGSTYYADSVKGRFTISRDNAKKTVYLQMNSLKPEDTAVYYCAAVRRWYYPALSEHDYWGQGTQVTVSS | low polyreactivity
QVQLVESGGGLVQAGGSLRLSCAASGSTFDSYAMGWYRQAPGKEREFVAAITWSGGRTYYADCVKGRFTISRDNAKNTVYLQMNSLKPEDTAVYDCSATDPWGWDYYYWGQGSQVTVSS | low polyreactivity
QVQLVESGGGLVQAGGSLRLSCAASGSIFLKYAMCLYRQAPGKERELVAAMSFSGGGTYYADSVKGRFTISRDNAKNTVYLQMNSLKPEDTAVYYCAADKIVYVRSNWYWGFDYWGQGTQVTVSS | low polyreactivity
QVHLVESGGGLVQAGGSLRLSCAASGIIFTWYAMGMYRQAPGKEREMVAAISGSGDITYYADSVKGRFTISRDNAKNTVYLQMNSLKPEDTAVYYCAADPWTYWEDYDYWGQGTQVTVSS | low polyreactivity
QVQLVESGGGLVQAGGSLRLSCAASGRIFRKYAMGWYRQAPGKERELVAAINWSGGSTYYADSVKGRFTISRDNAKNTVYLQMNSLKPEDTAVYYCAAYVRRVGYYYWGQGTQVTVSS | high polyreactivity
QVQLVESGGGLVQAGGSLRLSCAASGRTFVYYAMGWYRQAPGKERELVAAITSGGSTYYADSVKGRFTISRDNAKNTVYLQMNSLKPEDTAVYYCNKARVRGARFDYWGQGTQVTVSS | high polyreactivity
QVQLVETGGGLVQAGGSLRLSCAASGIIIGYYAMGWYRQAPGKEREMVAAINQDGSSTYYADSVKGRFTISRDNAKNTVYLQMNSLTPEDTAVYYCNARGVPRQDARMGYWGQGTQVTVSS | low polyreactivity
QVHLVESGGGLIQAGGSLRISSAPSGSTFGTYVMGWSRQAPGKERELVAAISKRGGRTYYADSVKGRFTISRDNAKNTVYVPMTSLKAEDTAVYYCYAVYLYSGSSARYYWGQGTEVTVSS | high polyreactivity
QVQLVESGGGLVQAGGSLRLSCAASGYISYYYAMGWYRQAPGKEREFVAGISWSGGSTYYADPVKGRFTISRDNAKNTVYLQMNSLKTEDTAVYYCAARLSRWWPPTRVHYTDRYYWGQGTQVTVSS | high polyreactivity
QVHLVESGVGLVQAGGSLRLSCAASGYIFPYYTMGWYRQAPGKERELVAAITIGGSTYYADSVKGRFTISRDNAKNTVYLQMNSLKPEDTAVYYCAARSRYYDTRFDYWGQGTQVTVSS | low polyreactivity
QVQLVESGGGLVQAGGSLRLSCAASGSIFVYYTMGWYRKAPGKERELVASIDSGDRTNYADSVKGRFTISRDNAKNTVYLQMNSLKPEDTAVYYCAARHSRSWRFNSRRRYGYWGQGTQVTVSS | high polyreactivity
QVKLVESGGGLVQAGGSLRISCAASGLTFPKYAMGWYRQAPGKERELVAAITQRGGSTYYADSVKVRFTISRDNAKNTVYLEMYWLKREDTAVYYCNARRRDYNNRREFDYWGQGSQVTVSS | high polyreactivity
QVQLVESGGGLVQAGGSLRLSCAASGRIFGLYAMGWYRQAPGKEREFVAAIRLSGGSTYYADSVKGRFTISRDNAKNTVYLQMISLKPEDTAVYYCAADLSYNRGRGSRVYYWGQGTQVTVSS | high polyreactivity

Sequence | polyreactivity (PSR sort gate)
QVQLVESGGGLVQAGGSLRLSSAASGFTFSDNAMGWYRQAPGKERELVAAISRSGGNTHYADSVKGRFTISRDNAKNTVYLQMNSLKPEDTAVYYCAKYLYKSRIRSTFDYWGQGTQVTVSS | high polyreactivity
QVHLVESGGGLVQAGGSLRLSCAASGSIFGGYAMGWSRQAPGKERELVAAISYRGASTYYADSVKGRFTISRDNAKNTVYLQMNSLKPEDTAVYYCNADDRGSTYVDFDYWGQGTQVTVSS | low polyreactivity
QVQLVESGGGLVQAGGSLRLSCAASGSTFYLNAMGWYRQAPWKERELVASITWRGGSTYYADSVKGRFTISRDNAKNTVYLQMNSLKPEDTGVYYCAADATRLRTRYKRDYWGQGSQVTVSS | high polyreactivity
QVQLVESRGGLVQAGGSLRLSCAASGITFYVNDMGWYRQEPGTERELVAAISYRGGSTYYADSVKGRFTISRDNAKNTVYLQMNSLKPEDTAVYYCAADYNYWSPHRDDYWGQGTQVTVSS | low polyreactivity
QVQLVESGGGLVQAGGSLRLSCAASGSTFRVNVMGWYRQAPGKERELVAAITTSGGSTYYADSVKGRFTISRDNAKNTVYLQMNSLKPEDTAVYYCAAEGGFSPQPYNLYYATPREDYWGQGTQVTVSS | low polyreactivity
QVQLVESGGGLVQAGGSLRLSCAASGFIFVSNAMGWYRQAPGKERELVATITNGDRTYYADSVKGRFPISRDNAKNTVYLQMNSLKPEDTAVYYCNADFRAREVFLFDSWGQGTQVTVSS | low polyreactivity
QVQLVESGGGLVQAGGSLRLSCAASGSILKGYAMGWYRQAPGKERELVAAISGSGGSTHYADSVKGRFTISRDNAKNTVYLQMNSLKPEDTAVYYCAAAYKWTYYWGQGTQVTVSS | high polyreactivity
QVQLVESGGGLVQAGGSLRLSCAASGFTFDRNAMGWYRQAPGKERELVATISQSGTNTYYADSVKGRFTISRDNAKNTVYLQMNSLKPEDTAVYYCNARYIFYRYDYWGQGTQVTVSS | low polyreactivity
QVQLVESGGGLVQAGGILRLSCAASGSIFPFNAMGWYRQAPGKERDLVAAITRSGGSTYYADSVKGRFTISRDNAKNTVYLQMNSLKPEDTSVYYCATDPEWPLPAYYYWGQGTQVTVSS | low polyreactivity
QVQLVESGGGLVQAGGSLRLSCAASGRTFIFNAMGWYRQAPGKERELVAAISSGGGTNYADSVKWRFTISRDNAKNTVYLQMNSMKPEDTAVYYCAAVPRDHYSYVYDGDKYDYWGQGTQVTVSS | low polyreactivity
QVQLVESGGGLVQAGGSLRLSCAASGRIIVLYAMGWSRQAPGKERELVASIRSGGSTNYADSVKGRFTISRDNAKNTVYLQMNSLKPEETAVYYCAARPDHKRYDYWGQGTQVTVSS | low polyreactivity
QVQLVESGGGLVQAGGSLRLSCAASGRIFTWYTMGWYRQAPGKERELVAAINRGGSTTYADSVKGRFTISRDNAKNTVYLQMNSLKPEDTAVYSCAAYRYTSRVYSYWRGYDYWGQGTQVTVSS | high polyreactivity
QVQLVESGGGLVQAGGTLRLSCAASGFTFFSNAMGWYRQPPGKERELVAAIPTNGGSTYYADSVKGRFTISRDNAMNTVYLQMNSLKPEDTALYYCAAEYTVGGPYSYDFWGQGTQVTVSS | low polyreactivity
QVQLVESGGGLVQAGGSLRLSCAASGIIFAHYAMGWYRQAPGKERELVAAISRGGSSTYYADSVKGRFTISRDNAKNTVYLQMNSLKPEDTAVDYCAAYGPKVIGPKTSYSSSRYDYWGQGTQVTVSS | high polyreactivity
QVQLVESGGGLVQAGGSLRLSCAASGFIFRYYAMGWYRQAPGKERELVAAISGSGGGTYYADSVKGRFTISRDNAKNTVYLQMNSLIPEDTAVYYCAATWTQPQPGYYPYYYWGQGTQVTVSS | high polyreactivity
QVQLVESVGGLVQAGGSLRLICAASGSIFVPNTMGWYRQAPGKERELVAAINISGGNTYYADSVKGRFTISRDNAKNTVYLQMNSLKPEDTAVYYCAAVWFKVWSFAGDWGQGTQVTVSS | low polyreactivity
QVQLVESGGGLVQAGGILRLSCAAYGSISYGYGMGWYRQPPGKERELVATLSGRAGSTYYADSVKGRFTISRDNAKYTVYLQMNSLKPEDTAVYYCAAKWWRLTWTAGYGGRCYGYWGQGSQVTVSS | low polyreactivity
QVQLVESGGGLVQAGGSLRLSCAASGRTFEGNAMGWYRQAPGKERELDAAITSGGRTNYADSVKGRFTISRDNAKNTVYLQMNSLKPEDTAVYYCAVETRDRSTSFPGQAYDYWGQGSQVTVSS | low polyreactivity
QVQLVESGGGLVQAGCSHRLSCSSTGRTFYIYDMGRYRQAPGKERELVAVISWSGGDTNYADSVKGRFRISRDNAKNTVYLQMNSLKPEDTAVYYCAATRRDRRKSFTYRYDYWGQGTQVTVSS | high polyreactivity
QVQLVESGGGLVQAGGSLRLSCAASGRIFPFYVMGWYRQAPGKERELVATINWSGGSTYYADSVKGRFTISRDNAKNTVYLQMNSLKPEDSAVYYCNAAPSEDYDYWGQGTQVTVSS | low polyreactivity
QVQLVESGGGLVQAGGSLRLSCAASGRTFPSYTMGWSRQAPGKERELVAAITWTGGSTYYADSVKGRFTISRDNAKNTVYLQMISLKPEDTAVYYCADYDYWGHGTQVTVSS | low polyreactivity
